# In US20130052195A1 (EMERGENT PRODUCT DEVELOPMENT SEATTLE, published 2013):
# T1: murine IL6 (murine, UniProt P08505 25-211)
# T1 construct: also called mIL-6; mIL6
# T1 sequence (looked up): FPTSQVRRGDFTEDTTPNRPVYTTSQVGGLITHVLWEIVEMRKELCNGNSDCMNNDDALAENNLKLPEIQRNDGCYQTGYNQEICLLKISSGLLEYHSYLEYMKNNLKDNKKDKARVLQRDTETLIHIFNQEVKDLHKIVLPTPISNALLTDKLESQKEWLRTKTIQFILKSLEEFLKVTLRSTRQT
# B1: A2-XT6 (multi-target binding molecule with the TNFR extracellular domain (ECD) at the N-terminal end and the anti-hyperIL6 scFv at the carboxy-terminal end) (other)
# chain: LPAQVAFTPYAPEPGSTCRLREYYDQTAQMCCSKCSPGQHAKVFCTKTSDTVCDSCEDSTYTQLWNWVPECLSCGSRCSSDQVETQACTREQNRICTCRPGWYCALSKQEGCRLCAPLRKCRPGFGVARPGTETSDVVCKPCAPGTFSNTTSSTDICRPHQICNVVAIPGNASMDAVCTSTSPTRSMAPGAVHLPQPVSTRSQHTQPTPEPSTAPSTSFLLPMGPSPPAEGSTGDTGEPKSSDKTHTCPPCPAPEAAGAPSVFLFPPKPKDTLMISRTPEVTCVVVDVSHEDPEVKFNWYVDGVEVHNAKTKPREEQYNSTYRVVSVLTVLHQDWLNGKAYACAVSNKALPAPIEKTISKAKGQPREPQVYTLPPSRDELTKNQVSLTCLVKGFYPSDIAVEWESNGQPENNYKTTPPVLDSDGSFFLYSKLTVDKSRWQQGNVFSCSVMHEALHNHYTQKSLSLSPGQRHNNSSLNTRTQKARHSPNSEVQLLESGGGLVQPGGSLRLSCAASGFTFSFYQMHWVRQAPGKGLEWVSGIYPSGGYTKYADSVKGRFTISRDNSKNTLYLQMNSLRAEDTAVYYCARDLGYGSSWYYFDYWGQGTLVTVSSGGGGSGGGGSGGGGSQSALTQPASVSGSPGQSITISCSGTDSDVGGYNHVSWYQQHPGKAPKLIIYDVDHRPSGISNRFSGSKSGNTASLTISGLQAEDEADYYCSSYRSGSTYVFGTGTKVTVL
# notes: also called Zeu080a; TRU(XT6)-1002
# Biological target: T1, murine IL6
# Test: not described (statement in Example 1)
binder,measurement,value
B1,binding result,no binding
